From article PMC10020961, “Structural Elucidation of Ivermectin Binding to α7nAChR and the Induced Channel Desensitization” (ACS Chemical Neuroscience, 2023)
One block for each molecule: values may come before it.

What was measured:
[1] = target: full-length human α7 nicotinic acetylcholine receptor (human) (UniProt P36544); assay: SEC; S200 10/300 column, 20 mM HEPES pH 7.4, 300 mM NaCl, 0.2% DPC or 0.1% LDAO; pentamer fraction isolated
[2] = target: the molecule itself; assay: NMR structure (NMR and ESR restraints with Rosetta comparative modelling); α7nAChR TMD + ICD in LDAO micelles, pH 4.7, 25 mM NaCl, 318 K, with ivermectin; fivefold symmetry applied in the calculations

stoichiometry N [1]: 5
Molecule: full-length human α7 nicotinic acetylcholine receptor (from UniProt P36544 23-502)

B1: human α7 nicotinic acetylcholine receptor construct containing the transmembrane and intracellular domains (α7nAChR TMD + ICD) (domain or fragment)
chain: LYYGLNLLIPCVLISALALLVFLLPADSGEKISLGITVLLSLTVFMLLVAEIMPATSDSVPLIAQYFASTMIIVGLSVVVTVIVLQYHHHDPDGGKMPKWTRVILLNWCAWFLRMKRPGEDKVRPACQHKQRRCSLASVEMSAVAPPPASNGNLLYIGFRGLDGVHCVPTPDSGVVCGRMACSPTHDEHLLHGGQPPEGDPDLAKILEEVRYIANRFRCQDESEAVCSEWKFAACVVDRLCLMAFSVFTIICTIGILMSAPNFVE
notes: α7 nicotinic acetylcholine receptor, human; construct with the transmembrane domain (TMD) and intracellular domain (ICD), without the extracellular domain; also called α7 TMD + ICD; α7 TMD-ICD; source: E. coli Rosetta 2(DE3) pLysS, purified (NiNTA, SEC pentamer fraction), in LDAO micelles
stoichiometry N [2]: 5
